Where two headings read alike, the source gives them in different places.
T1: monkey CD3ε protein (monkey, UniProt Q95LI5 22-117, limits assumed)
T1 sequence (looked up): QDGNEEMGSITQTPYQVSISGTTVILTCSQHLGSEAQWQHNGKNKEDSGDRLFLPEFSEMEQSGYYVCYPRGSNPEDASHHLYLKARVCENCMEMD


Assays:
[1] = molecular target: T2, recombinant human CD3ε-ECD His protein (human, UniProt P07766 23-126); assay: ELISA, coated antigen
T2 construct: extracellular domain; also called human CD3ε-His; CD3ε antigen protein; not shown: His tag
Description: (§1) To detect the binding activity of the humanized antibodies to CD3 protein, CD3 protein was diluted with PBS to the final concentration of […], then added to a 96-well ELISA plate at 50 μL/well, and the plate was sealed with a plastic film, and incubated overnight at 4° C. On the next day, the plate was washed 2 times with PBS, and a blocking solution [PBS+2% (v/v) BSA] was added for blocking at room temperature for 2 h. The blocking solution was poured off, and the antibody (initial concentration of 100 nM, and gradient dilution at 1:10) or a negative control antibody was added at 50 µl/well. After incubation at 37° C. for 2 h, the plate was washed 3 times with PBS. […] TMB substrate was added at 50 μl/well, and incubated at room temperature for 10 min, and then a stop solution (1.0 N HCl) was added at 50 μl/well. The OD450 nm values were read by an ELISA microplate reader (Multimode Plate Reader, EnSight, purchased from Perkin Elmer).

[2] = molecular target: T3, human CD3ε/δ-His (human, UniProt P07766 23-126; P04234 22-105); assay: ELISA, coated antigen
T3 construct: Bought recombinant heterodimer with His tag; also called human CD3ε/δ protein
Description: as §1

[3] = molecular target: T2, recombinant human CD3ε-ECD His protein; assay: ELISA, coated antigen; remark: listed apart in the source
[4] = molecular target: T1, monkey CD3ε protein; assay: ELISA, coated antigen
[5] = molecular target: T4, monkey CD3ε/δ-His (monkey, UniProt Q95LI5 22-117; Q95LI8 22-105); assay: ELISA, coated antigen
T4 construct: Bought recombinant heterodimer with His tag

[6] = molecular target: T5, human CD3 on the cell surface (Jurkat cells, expanded human T cells, Jurkat-Lucia NFAT cells, human PBMC) (human, UniProt P07766 23-207; P04234 22-171; P09693 23-182); assay: FACS, expanded human T cells
T5 construct: whole, on cells; Endogenous CD3 within the TCR-CD3 complex on cells (also zeta chains and TCR); the cell type is named under assay

[7] = molecular target: T5, human CD3 on the cell surface (Jurkat …); assay: cell-based or functional assay
[8] = molecular target: T5, human CD3 on the cell surface (Jurkat …); assay: cell-based or functional assay; remark: listed apart in the source
[9] = molecular target: T6, cynomolgus monkey CD3 on the surface of expanded monkey T cells (cynomolgus monkey, UniProt Q95LI5 22-198; Q95LI8 22-171; Q95LI7 23-181); assay: FACS, expanded monkey T cells
T6 construct: whole, on cells; Endogenous CD3 within the TCR-CD3 complex on T cells expanded from cynomolgus monkey PBMC
Description: The binding of the chimeric antibodies to CD3 on the cell surface was analyzed by detecting the binding of the antibodies to Jurkat cells and human T cells. Suspension cells Jurkat cells were scale-up cultured in T-75 cell culture flasks to the logarithmic growth phase, the supernatant of the medium was discarded by centrifugation, and the cell pellet was washed 2 times with PBS for later use. The expanded human T cells were washed 2 times with PBS for later use. After counting the cells in the previous step, the cell pellet was resuspended with [PBS+2% (w/w) BSA] blocking solution to 4×10⁶ cells/ml, and added to a 96-well FACS reaction plate at 50 μl/well, and then the chimeric antibody to be tested was added at 50 μl/well, and incubated at 4° C. for 1 h. The cells were centrifuged and washed 3 times with a PBS buffer. […] The cells were centrifuged and washed 5 times with PBS, and FACS (FACS Canto™, purchased from BD Company) was used for detection and result analysis. Data analysis was performed by software (CellQuest) to obtain the mean fluorescence […] (MFI) of the cells. And then software (GraphPad Prism8) was used for analysis, data fitting, and EC50 value calculation. The same method was used to simultaneously detect the binding of the chimeric antibodies to endogenous CD3 negative cells MOLT4 cells.
FACS detection and data analysis were performed on the cryopreserved monkey T cells of Example 2.4 according to the method in Example 5.1.

T2 sequence (P07766 23-126): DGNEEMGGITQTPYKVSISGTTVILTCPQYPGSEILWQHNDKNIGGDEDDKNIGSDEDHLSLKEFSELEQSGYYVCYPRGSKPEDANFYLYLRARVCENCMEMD
T3 sequence (P07766 23-126, stated change not applied, form in doubt, chain 1 of 2): as the sequence (P07766 23-126) above
T3 sequence (P04234 22-105, stated change not applied, form in doubt, chain 2 of 2): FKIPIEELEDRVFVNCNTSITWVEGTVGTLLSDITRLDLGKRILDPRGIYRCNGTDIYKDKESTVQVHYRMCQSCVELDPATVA
T5 sequence (P07766 23-207, chain 1 of 3): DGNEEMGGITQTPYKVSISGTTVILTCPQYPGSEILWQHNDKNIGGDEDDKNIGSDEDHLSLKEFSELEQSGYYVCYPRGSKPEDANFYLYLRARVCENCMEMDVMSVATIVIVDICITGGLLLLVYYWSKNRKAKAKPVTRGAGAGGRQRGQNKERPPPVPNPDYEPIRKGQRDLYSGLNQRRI
T5 sequence (P04234 22-171, chain 2 of 3): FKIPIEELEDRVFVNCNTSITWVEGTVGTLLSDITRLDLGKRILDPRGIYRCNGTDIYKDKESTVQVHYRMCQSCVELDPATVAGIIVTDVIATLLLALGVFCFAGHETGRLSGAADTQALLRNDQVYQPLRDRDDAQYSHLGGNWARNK
T5 sequence (P09693 23-182, chain 3 of 3): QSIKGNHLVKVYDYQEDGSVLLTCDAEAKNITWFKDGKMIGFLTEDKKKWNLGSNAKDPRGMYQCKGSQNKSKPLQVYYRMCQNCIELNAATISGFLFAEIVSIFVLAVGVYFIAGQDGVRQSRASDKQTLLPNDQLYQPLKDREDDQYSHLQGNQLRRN
T6 sequence (Q95LI5 22-198, chain 1 of 3): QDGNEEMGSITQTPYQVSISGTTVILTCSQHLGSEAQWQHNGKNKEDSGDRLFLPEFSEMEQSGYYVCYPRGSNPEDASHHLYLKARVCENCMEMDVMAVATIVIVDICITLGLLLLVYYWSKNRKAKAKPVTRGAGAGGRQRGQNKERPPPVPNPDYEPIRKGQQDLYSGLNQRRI
T6 sequence (Q95LI8 22-171, chain 2 of 3): as the sequence (P04234 22-171, chain 2 of 3) above, with I5V, N15K, I20V, S32T, D33N, I34N, T64A, S74N, V83L, H141R counted along it
T6 sequence (Q95LI7 23-181, chain 3 of 3): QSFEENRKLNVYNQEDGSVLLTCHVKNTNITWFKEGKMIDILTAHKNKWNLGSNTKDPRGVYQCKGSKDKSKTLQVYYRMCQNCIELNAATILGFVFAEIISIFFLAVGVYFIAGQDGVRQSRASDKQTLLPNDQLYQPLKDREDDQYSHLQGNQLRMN

Row | max-OD450 [1] [OD450] | max-OD450 [2] [OD450] | max-OD450 [3] [OD450] | max-OD450 [4] [OD450] | max-OD450 [5] [OD450] | EC50 [6] [nM] | max_MFI [6] [MFI] | EC50 (nM), luciferase reporter, Jurkat-Lucia NFAT cells [7] [nM] | Maximum response value (RLU) [7] [RLU] | EC50 (nM), luciferase reporter, Jurkat-Lucia NFAT cells [8] [nM] | Maximum response value (RLU) [8] [RLU] | EC50 [1] [nM] | EC50 [2] [nM] | EC50 [3] [nM] | EC50 [4] [nM] | EC50 [5] [nM] | EC50 [9] [nM] | MFI_Max [9] [MFI] | Binder | binding result [3] | binding result [4]
1 | 0.05 | 0.16 | 0.1 | 0.06 | 0.05 | 7.03 | 9270 | 7.41 | 6560 | 23.7 | 14500 | – | – | – | – | – | – | – | F2B-hIgG1 (antibody, V domains shown, also called F2Bs) VH: EVQLVESGGGLVQPGRSLRLSCAASGFTFDDYAMHWVRQAPGKGLEWVSGISWNSGSIGYADSVKGRFTISRDNAKNSLYLQMNSLRAEDTALYYCAKDSRGYGDYRLGGAYWGQGTLVTVSS VL: not shown | no binding (tested: 100 nM (initial concentration)) | no binding (tested: 100 nM (initial concentration))
2 | 1.49 | 2.83 | 3.09 | 2.96 | 2.52 | 2.09 | 33500 | 5.04 | 14300 | 1.74 | 33400 | 0.22 | 0.36 | 0.118 | 0.128 | 0.0754 | 0.28 | 66000 | 40G5c-hIgG1 (antibody, V domains shown) VH: EVQLVQSGAEVKKPGASVKVSCKASGYTFTNYYIHWVRQAPGQGLEWIGWIYPGDGNTKYNEKFKGRATLTADTSTSTAYLELSSLRSEDTAVYYCARDSYSNYYFDYWGQGTLVTVSS VL: DIVMTQSPDSLAVSLGERATINCKSSQSLLNSRTRKNYLAWYQQKPGQPPKLLIYWASTRESGVPDRFSGSGSGTDFTLTISSLQAEDVAVYYCTQSFILRTFGQGTKVEIKR | – | –

— patent US20250136687A1 (SHANDONG SIMCERE BIOPHARMACEUTICAL, published 2025)
